Measured values reported in PMC10113255, “PHF14 enhances DNA methylation of SMAD7 gene to promote TGF-β-driven lung adenocarcinoma metastasis”.

Target: T1, PHF14 ePHD domain WT (Homo sapiens, UniProt O94880 382-499)
T1 sequence: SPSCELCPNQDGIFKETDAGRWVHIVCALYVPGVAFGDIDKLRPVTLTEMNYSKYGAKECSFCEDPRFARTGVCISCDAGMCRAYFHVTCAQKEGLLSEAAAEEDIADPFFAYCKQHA
Assay: SPR; protein immobilized on CM5; SPR: HBS-P (10 mM HEPES pH 7.4, 150 mM NaCl, 0.05% P20), 25 °C, 1:1 Langmuir fit; EMSA: LightShift kit protocol, 0.5x TBE native PAGE, buffer not stated
Details: protein: recombinant; tags: His (EMSA, purification method); FLAG (SPR); label: biotin (EMSA); blunt

B1: CG-rich probe, unmethylated (dsDNA)
DNA 1: ACGGCTCGTCGCTACGGCTCGTCGCT
DNA 2: AGCGACGAGCCGTAGCGACGAGCCGT
- Kd: 36 nM

B2: AT-rich probe (dsDNA)
DNA 1: CATTAGATGATAGCATTAGATGATAG
DNA 2: CTATCATCTAATGCTATCATCTAATG
- Kd: 230 nM
